Experiments:
[1] = target: bovine pancreatic trypsin (bovine); test: chromogenic enzyme inhibition assay; 1 nM trypsin, 500 μM S2765, 37 °C, 110 mM Tris-HCl pH 8.0, 250 mM NaCl, 1% BSA; residual activity in triplicate at at least six inhibitor concentrations; Ki from a linear fit of 1/v against inhibitor concentration
[2] = target: activated coagulation factor XI (FXIa); test: chromogenic enzyme inhibition assay; 200 pM FXIa, 500 μM S2366, 37 °C, 110 mM Tris-HCl pH 8.0, 250 mM NaCl, 1% BSA; residual activity in triplicate at at least six inhibitor concentrations; Ki from a linear fit of 1/v against inhibitor concentration
[3] = target: activated coagulation factor XII (FXIIa); test: chromogenic enzyme inhibition assay; 1 nM FXIIa, 500 μM S2302, 37 °C, 110 mM Tris-HCl pH 8.0, 250 mM NaCl, 1% BSA; residual activity in triplicate at at least six inhibitor concentrations; Ki from a linear fit of 1/v against inhibitor concentration

Substance | Ki [1] [nM] | Ki [2] [nM] | Ki [3] [nM]
CHFI-2, synthetic cyclic peptide that resembles the CHFI protease-binding loop (from UniProt P01088 48-73) | 11700 | 94000 | 
CHFI-1234 (from UniProt P01088 29-108) (domain or fragment) | 1 |  | 1
CHFI-123 (from UniProt P01088 29-121) (domain or fragment) |  |  | 116
CHFI-234 (from UniProt P01088 40-136) (domain or fragment) | 2.2 |  | 3.2
